Assay results reported in article PMC11186766.

How the values were obtained:
[1] = target: full-length rat GluK2 kainate receptor (rat) (UniProt P42260); test: cryo-EM structure; time-resolved cryo-EM: purified GluK2 at 60 uM incubated with 500 uM BPAM344 for 20-30 min on ice, 90 uM succinylated concanavalin A added, 10 mM L-glutamate applied less than 3 s before plunge-freezing; 150 mM NaCl, 20 mM Tris-HCl pH 8.0, 0.05% digitonin
[2] = target: succinylated concanavalin A; test: as above

Row | stoichiometry N [1] | stoichiometry N [2] | Substance
1 | 4 | – | full-length rat GluK2 kainate receptor (from UniProt P42260 32-908)
2 | – | 2 | succinylated concanavalin A (natural protein)
